Laboratory results reported in patent US20180155427A1 (Novartis, published 2018).
Positions count from the first letter of the chain named. Numbers in names are those of the source.

B1: humanized mAb BAP049-hum02 (antibody, human IgG4 S228P, kappa, V domains shown)
VH: EVQLVQSGAEVKKPGESLRISCKGSGYTFTTYWMHWVRQATGQGLEWMGNIYPGTGGSNFDEKFKNRVTITADKSTSTAYMELSSLRSEDTAVYYCTRWTTGTGAYWGQGTTVTVSS
VL: DIQMTQSPSSLSASVGDRVTITCKSSQSLLDSGNQKNFLTWYQQKPGQAPRLLIYWASTRESGIPPRFSGSGYGTDFTLTINNIESEDAAYYFCQNDYSYPYTFGQGTKVEIKR
notes: Human IgG4(S228P), human kappa; tested as concentrated supernatant of transiently transfected CHO cells
B2: humanized mAb BAP049-hum12 (antibody, human IgG4 S228P, kappa, V domains shown)
VH: B1 VH
VL: DIQMTQSPSSLSASVGDRVTITCKSSQSLLDSGNQKNFLTWYLQKPGQSPQLLIYWASTRESGVPSRFSGSGSGTDFTFTISSLEAEDAATYYCQNDYSYPYTFGQGTKVEIKR
notes: as for B1
B3: humanized mAb BAP049-hum15 (antibody, human IgG4 S228P, kappa)
heavy: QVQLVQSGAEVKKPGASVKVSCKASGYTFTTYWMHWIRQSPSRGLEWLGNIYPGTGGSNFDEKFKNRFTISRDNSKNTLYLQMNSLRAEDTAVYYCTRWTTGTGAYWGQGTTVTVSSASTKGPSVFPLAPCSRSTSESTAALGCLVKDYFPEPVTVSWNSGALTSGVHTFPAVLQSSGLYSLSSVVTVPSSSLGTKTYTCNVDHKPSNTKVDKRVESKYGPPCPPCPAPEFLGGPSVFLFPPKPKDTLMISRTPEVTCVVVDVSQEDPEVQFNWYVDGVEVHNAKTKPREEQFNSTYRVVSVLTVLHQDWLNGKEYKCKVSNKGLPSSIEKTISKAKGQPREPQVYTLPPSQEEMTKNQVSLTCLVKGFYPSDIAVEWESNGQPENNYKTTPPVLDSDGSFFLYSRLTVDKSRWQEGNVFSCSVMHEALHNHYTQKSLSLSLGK
light: EIVLTQSPDFQSVTPKEKVTITCKSSQSLLDSGNQKNFLTWYQQKPGQAPRLLIYWASTRESGVPSRFSGSGSGTDFTFTISSLEAEDAATYYCQNDYSYPYTFGQGTKVEIKRTVAAPSVFIFPPSDEQLKSGTASVVCLLNNFYPREAKVQWKVDNALQSGNSQESVTEQDSKDSTYSLSSTLTLSKADYEKHKVYACEVTHQGLSSPVTKSFNRGEC
notes: as for B1
B4: humanized mAb BAP049-hum10 (antibody, human IgG4 S228P, kappa)
heavy: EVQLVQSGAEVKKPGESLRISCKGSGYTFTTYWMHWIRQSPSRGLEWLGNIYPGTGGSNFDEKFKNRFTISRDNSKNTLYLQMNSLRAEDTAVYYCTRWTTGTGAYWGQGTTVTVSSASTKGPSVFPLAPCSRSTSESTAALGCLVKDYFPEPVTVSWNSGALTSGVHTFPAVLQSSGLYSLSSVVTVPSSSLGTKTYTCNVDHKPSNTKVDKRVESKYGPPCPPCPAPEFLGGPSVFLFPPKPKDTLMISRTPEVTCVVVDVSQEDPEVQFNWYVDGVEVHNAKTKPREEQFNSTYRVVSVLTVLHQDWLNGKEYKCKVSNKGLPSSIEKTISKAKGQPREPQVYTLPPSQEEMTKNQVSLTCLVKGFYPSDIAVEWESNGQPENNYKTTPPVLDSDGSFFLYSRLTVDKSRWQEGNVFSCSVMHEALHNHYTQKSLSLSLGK
light: B3 light with D9A, F10T, Q11L, V13L, T14S, K16G, K18R, V19A, I21L, T22S
notes: Human IgG4(S228P), human kappa; tested as concentrated supernatant of transiently transfected CHO cells; also called Clone No. 10
B5: humanized mAb BAP049-hum11 (antibody, human IgG4 S228P, kappa)
heavy: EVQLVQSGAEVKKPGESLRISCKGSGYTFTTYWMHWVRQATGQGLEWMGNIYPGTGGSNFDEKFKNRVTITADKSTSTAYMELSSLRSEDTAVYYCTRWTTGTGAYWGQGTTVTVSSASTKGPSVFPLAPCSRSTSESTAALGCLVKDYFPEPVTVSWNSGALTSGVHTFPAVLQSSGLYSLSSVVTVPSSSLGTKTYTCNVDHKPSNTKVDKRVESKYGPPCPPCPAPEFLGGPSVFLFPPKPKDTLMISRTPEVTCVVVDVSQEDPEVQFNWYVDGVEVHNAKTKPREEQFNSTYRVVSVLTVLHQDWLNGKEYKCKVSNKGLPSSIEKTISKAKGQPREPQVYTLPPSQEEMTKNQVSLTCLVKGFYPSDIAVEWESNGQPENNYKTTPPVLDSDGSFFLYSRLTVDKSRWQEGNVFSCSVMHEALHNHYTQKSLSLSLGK
light: B3 light with D9A, F10T, Q11L, V13L, T14S, K16G, K18R, V19A, I21L, T22S
notes: Human IgG4(S228P), human kappa; tested as concentrated supernatant of transiently transfected CHO cells; also called Clone No. 11
B6: humanized mAb BAP049-hum14 (antibody, human IgG4 S228P, kappa)
heavy: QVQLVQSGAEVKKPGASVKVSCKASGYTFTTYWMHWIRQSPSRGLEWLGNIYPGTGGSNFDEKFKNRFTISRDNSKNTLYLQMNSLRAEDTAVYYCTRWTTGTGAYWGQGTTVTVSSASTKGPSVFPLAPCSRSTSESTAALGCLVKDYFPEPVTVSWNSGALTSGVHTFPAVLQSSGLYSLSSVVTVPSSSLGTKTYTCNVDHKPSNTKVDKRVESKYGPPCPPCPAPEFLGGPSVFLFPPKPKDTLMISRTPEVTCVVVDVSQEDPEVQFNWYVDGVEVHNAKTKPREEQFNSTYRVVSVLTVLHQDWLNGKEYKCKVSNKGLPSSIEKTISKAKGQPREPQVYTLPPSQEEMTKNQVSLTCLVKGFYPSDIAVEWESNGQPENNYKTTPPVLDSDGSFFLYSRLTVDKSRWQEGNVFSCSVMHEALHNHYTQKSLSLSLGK
light: B3 light with D9A, F10T, Q11L, V13L, T14S, K16G, K18R, V19A, I21L, T22S
notes: as for B1
B7: humanized mAb BAP049-hum04 (antibody, human IgG4 S228P, kappa, V domains shown)
VH: EVQLVQSGAEVKKPGESLRISCKGSGYTFTTYWMHWIRQSPSRGLEWLGNIYPGTGGSNFDEKFKNRFTISRDNSKNTLYLQMNSLRAEDTAVYYCTRWTTGTGAYWGQGTTVTVSS
VL: EIVLTQSPATLSLSPGERATLSCKSSQSLLDSGNQKNFLTWYQQKPGKAPKLLIYWASTRESGVPSRFSGSGSGTDFTFTISSLQPEDIATYYCQNDYSYPYTFGQGTKVEIKR
notes: as for B1
B8: humanized mAb BAP049-hum08 (antibody, human IgG4 S228P, kappa)
heavy: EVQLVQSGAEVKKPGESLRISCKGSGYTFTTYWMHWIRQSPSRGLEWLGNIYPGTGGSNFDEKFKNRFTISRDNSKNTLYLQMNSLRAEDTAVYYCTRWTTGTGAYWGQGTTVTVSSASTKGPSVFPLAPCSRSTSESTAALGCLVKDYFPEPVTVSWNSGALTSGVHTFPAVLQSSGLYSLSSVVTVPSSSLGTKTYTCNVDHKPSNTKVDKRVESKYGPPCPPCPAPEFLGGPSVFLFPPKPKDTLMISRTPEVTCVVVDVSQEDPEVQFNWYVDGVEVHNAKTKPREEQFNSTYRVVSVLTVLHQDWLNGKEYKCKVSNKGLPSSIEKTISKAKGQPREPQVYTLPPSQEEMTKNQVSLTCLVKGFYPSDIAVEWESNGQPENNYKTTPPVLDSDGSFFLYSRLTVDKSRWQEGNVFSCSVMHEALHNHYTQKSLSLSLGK
light: B3 light
notes: Human IgG4(S228P), human kappa; tested as concentrated supernatant of transiently transfected CHO cells; also called Clone No. 08
B9: humanized mAb BAP049-hum09 (antibody, human IgG4 S228P, kappa)
heavy: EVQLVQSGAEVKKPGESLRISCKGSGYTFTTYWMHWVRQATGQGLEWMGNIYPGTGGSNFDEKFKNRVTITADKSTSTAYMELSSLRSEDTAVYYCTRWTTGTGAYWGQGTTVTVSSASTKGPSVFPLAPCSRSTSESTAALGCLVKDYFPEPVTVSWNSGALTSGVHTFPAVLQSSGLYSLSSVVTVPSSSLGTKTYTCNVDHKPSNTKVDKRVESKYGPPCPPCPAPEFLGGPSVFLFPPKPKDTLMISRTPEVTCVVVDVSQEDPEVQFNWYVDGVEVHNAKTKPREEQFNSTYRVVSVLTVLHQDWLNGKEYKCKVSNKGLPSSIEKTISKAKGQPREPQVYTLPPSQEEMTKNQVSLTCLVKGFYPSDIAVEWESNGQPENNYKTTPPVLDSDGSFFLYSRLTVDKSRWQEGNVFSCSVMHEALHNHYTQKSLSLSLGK
light: B3 light
notes: Human IgG4(S228P), human kappa; tested as concentrated supernatant of transiently transfected CHO cells; also called Clone No. 09
B10: humanized mAb BAP049-hum05 (antibody, human IgG4 S228P, kappa, V domains shown)
VH: B1 VH
VL: B7 VL
notes: Human IgG4(S228P), human kappa; tested as concentrated supernatant of transiently transfected CHO cells; also called Clone No. 05
B11: humanized mAb BAP049-hum07 (antibody, human IgG4 S228P, kappa)
heavy: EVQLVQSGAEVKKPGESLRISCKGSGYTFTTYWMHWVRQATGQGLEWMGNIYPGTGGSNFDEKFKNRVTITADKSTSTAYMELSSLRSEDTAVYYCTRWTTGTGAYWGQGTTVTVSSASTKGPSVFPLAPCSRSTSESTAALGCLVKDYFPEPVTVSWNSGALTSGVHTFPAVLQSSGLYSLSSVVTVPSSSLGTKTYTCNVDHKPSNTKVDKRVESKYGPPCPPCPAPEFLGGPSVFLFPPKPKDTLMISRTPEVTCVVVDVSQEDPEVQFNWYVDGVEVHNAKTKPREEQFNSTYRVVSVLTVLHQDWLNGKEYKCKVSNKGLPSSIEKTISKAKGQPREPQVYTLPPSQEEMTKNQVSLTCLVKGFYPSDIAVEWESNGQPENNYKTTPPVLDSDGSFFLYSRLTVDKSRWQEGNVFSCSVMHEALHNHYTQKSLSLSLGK
light: EIVLTQSPATLSLSPGERATLSCKSSQSLLDSGNQKNFLTWYQQKPGKAPKLLIYWASTRESGVPSRFSGSGSGTDFTFTISSLEAEDAATYYCQNDYSYPYTFGQGTKVEIKRTVAAPSVFIFPPSDEQLKSGTASVVCLLNNFYPREAKVQWKVDNALQSGNSQESVTEQDSKDSTYSLSSTLTLSKADYEKHKVYACEVTHQGLSSPVTKSFNRGEC
notes: as for B1
B12: humanized mAb BAP049-hum01 (antibody, human IgG4 S228P, kappa, V domains shown)
VH: B1 VH
VL: B7 VL with K48Q, K51R, D76E, F79L, E87D, I89F
notes: Human IgG4(S228P), human kappa; tested as concentrated supernatant of transiently transfected CHO cells; also called Clone No. 01
B13: humanized mAb BAP049-hum06 (antibody, human IgG4 S228P, kappa)
heavy: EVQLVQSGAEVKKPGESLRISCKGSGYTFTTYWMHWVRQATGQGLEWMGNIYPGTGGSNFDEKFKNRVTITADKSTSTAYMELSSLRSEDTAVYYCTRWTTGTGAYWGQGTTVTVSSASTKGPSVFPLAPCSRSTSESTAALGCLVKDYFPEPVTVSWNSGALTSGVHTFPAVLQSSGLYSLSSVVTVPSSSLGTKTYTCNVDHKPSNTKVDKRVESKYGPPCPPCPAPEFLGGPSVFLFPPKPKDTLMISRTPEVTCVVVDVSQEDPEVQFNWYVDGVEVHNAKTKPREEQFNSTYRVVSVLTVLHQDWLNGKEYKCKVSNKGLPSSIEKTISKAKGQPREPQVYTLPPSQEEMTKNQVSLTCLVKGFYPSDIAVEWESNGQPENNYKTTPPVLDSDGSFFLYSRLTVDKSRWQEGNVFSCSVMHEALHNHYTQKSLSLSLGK
light: DIVMTQTPLSLPVTPGEPASISCKSSQSLLDSGNQKNFLTWYQQKPGQAPRLLIYWASTRESGVPSRFSGSGSGTDFTFTISSLEAEDAATYYCQNDYSYPYTFGQGTKVEIKRTVAAPSVFIFPPSDEQLKSGTASVVCLLNNFYPREAKVQWKVDNALQSGNSQESVTEQDSKDSTYSLSSTLTLSKADYEKHKVYACEVTHQGLSSPVTKSFNRGEC
notes: as for B1
B14: humanized mAb BAP049-hum13 (antibody, human IgG4 S228P, kappa)
heavy: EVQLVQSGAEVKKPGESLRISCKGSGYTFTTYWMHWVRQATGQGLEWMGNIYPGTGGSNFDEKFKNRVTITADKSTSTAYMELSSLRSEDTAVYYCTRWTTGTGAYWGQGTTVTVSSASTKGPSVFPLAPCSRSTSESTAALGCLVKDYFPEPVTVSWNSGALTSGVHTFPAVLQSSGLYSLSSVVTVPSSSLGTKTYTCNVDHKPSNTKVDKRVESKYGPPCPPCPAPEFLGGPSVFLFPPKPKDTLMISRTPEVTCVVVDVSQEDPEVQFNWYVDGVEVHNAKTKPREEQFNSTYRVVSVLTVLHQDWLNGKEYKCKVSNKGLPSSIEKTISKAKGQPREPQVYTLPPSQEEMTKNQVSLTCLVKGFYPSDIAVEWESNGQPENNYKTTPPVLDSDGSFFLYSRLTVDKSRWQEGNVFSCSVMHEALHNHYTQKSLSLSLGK
light: B13 light with I2V, T7S, P15L, E17Q, Q48K, R51K
notes: as for B1
B15: humanized mAb BAP049-hum16 (antibody, human IgG4 S228P, kappa, V domains shown)
VH: B7 VH with I37V, S40A, S42G, R43Q, L48M
VL: EIVLTQSPDFQSVTPKEKVTITCKSSQSLLDSGNQKNFLTWYQQKPGQAPRLLIYWASTRESGVPSRFSGSGSGTDFTFTISSLEAEDAATYYCQNDYSYPYTFGQGTKVEIKR
notes: as for B1
B16: humanized mAb BAP049-hum03 (antibody, human IgG4 S228P, kappa, V domains shown)
VH: B7 VH
VL: B1 VL
notes: as for B1
B17: chimeric antibody BAP049-chi (Tyr) (antibody, human IgG4 S228P, kappa, V domains shown)
VH: QVQLQQSGSELVRPGASVKLSCKASGYTFTTYWMHWVRQRPGQGLEWIGNIYPGTGGSNFDEKFKNRTSLTVDTSSTTAYMHLASLTSEDSAVYYCTRWTTGTGAYWGQGTTVTVSS
VL: DIVMTQSPSSLTVTAGEKVTMSCKSSQSLLDSGNQKNFLTWYQQKPGQPPKLLIFWASTRESGVPDRFTGSGSVTDFTLTISSVQAEDLAVYYCQNDYSYPYTFGQGTKVEIKR
notes: Murine variable regions, human IgG4(S228P), human kappa; also called BAP049-chi-Y; Chi mAb (Tyr)

What was measured:
[1] = biological target: T1, human PD-1 expressed on cells (human, UniProt Q15116 25-288); experiment: rank among the 16 humanized clones by FACS binding data on PD-1-expressing cells
T1 construct: whole, on cells; Treated as one molecule; also called PD-1 expressing Jurkat cells; human PD-1 transfected Jurkat cells
T1 sequence (Q15116 25-288): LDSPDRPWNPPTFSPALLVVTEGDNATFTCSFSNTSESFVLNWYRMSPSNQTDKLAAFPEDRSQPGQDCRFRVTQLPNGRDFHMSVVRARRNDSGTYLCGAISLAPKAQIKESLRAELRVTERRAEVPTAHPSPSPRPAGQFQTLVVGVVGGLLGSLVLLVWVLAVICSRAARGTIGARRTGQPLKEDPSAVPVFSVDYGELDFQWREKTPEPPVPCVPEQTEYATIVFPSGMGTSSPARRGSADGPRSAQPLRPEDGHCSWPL

[2] = biological target: T1, human PD-1 expressed on cells; experiment: rank among the 16 humanized clones in competition with Alexa 488-labeled murine mAb BAP049 on PD-1-expressing 300.19 cells, first experiment
Protocol: (§1) Incubations with the mAb mixtures having different concentration ratios of test mAb to labeled mAb was at 4° C. for 30 min. Bound labeled murine mAb was then quantified using a FACS machine. The experiment was performed twice.

[3] = biological target: T1, human PD-1 expressed on cells; experiment: rank among the 16 humanized clones in competition with Alexa 488-labeled murine mAb BAP049 on PD-1-expressing 300.19 cells, second experiment
Protocol: as §1

[4] = biological target: T1, human PD-1 expressed on cells; experiment: FACS blocking assay on PD-1-expressing 300.19 cells; blocked ligand at constant concentration: PD-L1-huIgG1 Fc fusion protein (legend paragraph 211 names 'PD-L1-Ig and PD-L2-Ig' for FIG. 8A); bound ligand detected with PE anti-human IgG F(ab')2
Protocol: Incubation was at 4° C. for 30 min. Bound ligand fusion proteins were detected with PE-conjugated F(ab′)2 fragment of goat anti-human IgG which doesn't recognize IgG4 mAbs (Southern Biotech 2043-09), and flow cytometry.

Binder	Ranking FACS data [1]	Competition Binding 1st exp. (rank) [2]	Competition Binding 2nd exp. (rank) [3]	IC50 (read off the curve) [4]
B1	6	3	2	–
B2	3	8	16	–
B3	6	7	15	–
B4	7	6	> 4	~1 µg/mL
B5	6	4	> 4	–
B6	16	7	15	–
B7	14	15	15	–
B8	7	7	4	–
B9	7	2	4	–
B10	5	5	> 4	~1 µg/mL
B11	4	7	> 4	–
B12	2	7	2	~1 µg/mL
B13	1	7	3	–
B14	6	1	1	–
B15	15	16	15	–
B16	7	8	14	–
B17	–	–	–	~0.8 µg/mL
